Test results reported in paper PMC4471680.

Target: myeloperoxidase (human (endogenous in neutrophils))
Assay: SEC; unactivated azurophilic granules permeabilized with 0.1% NP-40, Superdex 200 GL, 20 mM HEPES pH 7.4, 100 mM NaCl, 0.5 U/ml heparin; fractions probed for NE and MPO; proteins of the complex detected by mass spectrometry

myeloperoxidase (human (endogenous in neutrophils)), sequence (P05164 165-745): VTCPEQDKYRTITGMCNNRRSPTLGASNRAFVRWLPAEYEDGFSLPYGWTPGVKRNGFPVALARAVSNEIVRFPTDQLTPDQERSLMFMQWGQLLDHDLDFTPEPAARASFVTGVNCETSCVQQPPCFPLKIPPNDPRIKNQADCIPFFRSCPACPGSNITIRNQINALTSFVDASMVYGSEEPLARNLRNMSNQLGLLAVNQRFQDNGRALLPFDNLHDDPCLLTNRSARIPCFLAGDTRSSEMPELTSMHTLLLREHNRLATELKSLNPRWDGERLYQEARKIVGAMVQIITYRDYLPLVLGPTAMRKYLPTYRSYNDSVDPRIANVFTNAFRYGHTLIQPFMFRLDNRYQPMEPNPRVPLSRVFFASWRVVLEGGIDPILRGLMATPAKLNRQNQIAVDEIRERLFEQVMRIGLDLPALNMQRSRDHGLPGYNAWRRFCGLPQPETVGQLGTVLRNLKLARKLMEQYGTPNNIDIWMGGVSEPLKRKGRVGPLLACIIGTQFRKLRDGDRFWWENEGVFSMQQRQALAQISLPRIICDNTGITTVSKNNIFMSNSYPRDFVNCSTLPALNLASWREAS

neutrophil elastase (from UniProt P08246 30-267) (enzyme)
stoichiometry N: 2 NE per MPO
